Reference: patent US20210388089A1 (COMPASS THERAPEUTICS, published 2021)

T1: CD5 of OKT3-activated primary αβ T cells (human, UniProt P06127 25-495)
T1 construct: whole, on cells
T1 sequence (looked up): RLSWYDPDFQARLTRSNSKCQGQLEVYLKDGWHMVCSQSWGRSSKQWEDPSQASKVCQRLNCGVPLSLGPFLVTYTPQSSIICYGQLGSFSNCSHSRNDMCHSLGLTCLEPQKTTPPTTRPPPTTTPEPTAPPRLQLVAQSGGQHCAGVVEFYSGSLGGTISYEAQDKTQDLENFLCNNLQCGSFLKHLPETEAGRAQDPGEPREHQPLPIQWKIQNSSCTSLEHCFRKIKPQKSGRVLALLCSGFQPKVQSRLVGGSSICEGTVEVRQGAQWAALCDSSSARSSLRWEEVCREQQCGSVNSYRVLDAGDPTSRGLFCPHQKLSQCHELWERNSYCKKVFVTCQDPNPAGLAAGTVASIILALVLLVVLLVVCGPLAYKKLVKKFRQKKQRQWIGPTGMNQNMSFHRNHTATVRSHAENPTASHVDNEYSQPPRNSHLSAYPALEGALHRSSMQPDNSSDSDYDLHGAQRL

T2: CD2 of OKT3-activated primary αβ T cells (human, UniProt P06729 25-351)
T2 construct: whole, on cells
T2 sequence (looked up): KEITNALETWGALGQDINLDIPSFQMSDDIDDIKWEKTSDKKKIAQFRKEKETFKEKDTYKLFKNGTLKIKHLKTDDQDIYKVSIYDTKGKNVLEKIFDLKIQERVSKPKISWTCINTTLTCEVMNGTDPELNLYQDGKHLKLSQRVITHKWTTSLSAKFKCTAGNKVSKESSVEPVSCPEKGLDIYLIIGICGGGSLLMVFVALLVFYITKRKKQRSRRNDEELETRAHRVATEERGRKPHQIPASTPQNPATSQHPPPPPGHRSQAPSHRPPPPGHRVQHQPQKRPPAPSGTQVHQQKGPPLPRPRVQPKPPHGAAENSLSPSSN

T3: recombinant NRP1 Fc protein (UniProt O14786-2 22-644, limits assumed)
T3 construct: Construct not described
T3 sequence (looked up): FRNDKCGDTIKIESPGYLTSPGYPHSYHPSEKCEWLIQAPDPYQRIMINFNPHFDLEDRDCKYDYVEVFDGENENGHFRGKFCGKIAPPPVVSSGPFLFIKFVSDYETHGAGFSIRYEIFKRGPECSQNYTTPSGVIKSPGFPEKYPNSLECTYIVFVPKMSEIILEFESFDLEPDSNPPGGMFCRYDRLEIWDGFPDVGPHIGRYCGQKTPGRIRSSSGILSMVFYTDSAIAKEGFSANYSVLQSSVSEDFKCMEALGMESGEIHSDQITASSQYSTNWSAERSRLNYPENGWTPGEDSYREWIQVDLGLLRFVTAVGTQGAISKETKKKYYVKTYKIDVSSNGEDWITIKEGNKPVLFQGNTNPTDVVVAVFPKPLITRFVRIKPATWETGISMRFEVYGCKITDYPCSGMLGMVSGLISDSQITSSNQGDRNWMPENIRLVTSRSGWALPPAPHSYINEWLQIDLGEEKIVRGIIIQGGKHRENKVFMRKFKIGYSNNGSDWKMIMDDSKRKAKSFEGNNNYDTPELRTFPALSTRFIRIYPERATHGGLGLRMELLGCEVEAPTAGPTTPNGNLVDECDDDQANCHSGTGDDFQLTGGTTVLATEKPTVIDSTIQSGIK

T4: recombinant NRP2 Fc protein (UniProt O60462 23-864, limits assumed)
T4 construct: Construct not described
T4 sequence (looked up): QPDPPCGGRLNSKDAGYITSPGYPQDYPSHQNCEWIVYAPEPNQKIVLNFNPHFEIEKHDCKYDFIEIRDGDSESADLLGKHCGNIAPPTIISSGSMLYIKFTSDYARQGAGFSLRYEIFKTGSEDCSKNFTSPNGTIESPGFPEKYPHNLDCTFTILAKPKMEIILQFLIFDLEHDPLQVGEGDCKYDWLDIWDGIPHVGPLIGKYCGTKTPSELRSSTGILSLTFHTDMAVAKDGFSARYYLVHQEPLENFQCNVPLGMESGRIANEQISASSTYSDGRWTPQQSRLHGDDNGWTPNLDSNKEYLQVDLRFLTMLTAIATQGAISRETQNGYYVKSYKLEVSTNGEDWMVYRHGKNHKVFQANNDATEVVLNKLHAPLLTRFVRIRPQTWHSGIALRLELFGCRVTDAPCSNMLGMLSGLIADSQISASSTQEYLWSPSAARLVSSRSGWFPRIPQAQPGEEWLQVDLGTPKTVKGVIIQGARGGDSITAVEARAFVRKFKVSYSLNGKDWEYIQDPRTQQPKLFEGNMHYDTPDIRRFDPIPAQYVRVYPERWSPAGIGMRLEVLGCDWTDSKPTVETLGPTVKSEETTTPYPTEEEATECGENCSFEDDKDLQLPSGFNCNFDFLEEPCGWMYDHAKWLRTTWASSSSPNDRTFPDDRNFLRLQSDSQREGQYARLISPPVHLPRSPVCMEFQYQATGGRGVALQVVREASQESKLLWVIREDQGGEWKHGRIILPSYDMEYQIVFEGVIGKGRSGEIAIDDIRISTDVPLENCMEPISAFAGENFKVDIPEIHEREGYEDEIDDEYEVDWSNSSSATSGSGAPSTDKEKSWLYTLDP

B1: BTN3A1-Fc fusion protein (R&D systems Cat #8539-BT-050) (Fc fusion)
chain: not shown
notes: Bought from R&D systems; also called BTN3A1-Fc proteins; CD277; not shown: Fc part of the bought fusion protein
B2: anti-CD277 monoclonal antibody mAb1 (antibody, human IgG1, kappa, N297A)
heavy: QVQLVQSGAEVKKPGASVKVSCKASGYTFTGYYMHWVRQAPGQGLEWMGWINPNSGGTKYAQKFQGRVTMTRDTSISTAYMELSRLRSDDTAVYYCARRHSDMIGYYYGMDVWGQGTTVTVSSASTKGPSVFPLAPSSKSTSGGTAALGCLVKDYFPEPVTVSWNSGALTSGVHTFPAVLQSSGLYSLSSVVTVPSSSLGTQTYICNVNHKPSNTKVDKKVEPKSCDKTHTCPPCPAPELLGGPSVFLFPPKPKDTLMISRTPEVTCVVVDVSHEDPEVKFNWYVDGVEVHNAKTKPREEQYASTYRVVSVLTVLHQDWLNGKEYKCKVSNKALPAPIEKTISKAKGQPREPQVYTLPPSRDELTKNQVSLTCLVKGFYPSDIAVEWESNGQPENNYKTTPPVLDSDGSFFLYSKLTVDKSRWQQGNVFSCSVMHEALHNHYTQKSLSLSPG
light: DIQMTQSPSSVSASVGDRVTITCRASQGISSWLAWYQQKPGKAPKLLIYAASSLQSGVPSRFSGSGSGTDFTLTISSLQPEDFATYYCQQATDFPPTFGGGTKVEIKRTVAAPSVFIFPPSDEQLKSGTASVVCLLNNFYPREAKVQWKVDNALQSGNSQESVTEQDSKDSTYSLSSTLTLSKADYEKHKVYACEVTHQGLSSPVTKSFNRGEC
notes: also called anti-CD277 antibody mAb1; anti-CD277 mAb1
B3: human BTN3A1 (CD277) expressed on the cell surface (BTN-K32 aAPCs: K562 cells expressing human CD32 and BTN3A1; BMDCs of BTN3A1 knock-in mice) (receptor)
chain: not shown
notes: also called BTNA31-K32; BTN3-K32
B4: recombinant NKG2A Fc protein (Fc fusion, not shown: a dimerising Fc or GST)
chain: not shown
notes: Construct not described

What was measured:
[1] = molecular target: T5, CD44 of OKT3-activated primary αβ T cells (human, UniProt P16070 21-742); assay: co-immunoprecipitation from activated primary αβ T cells after DTSSP crosslinking, LC-MS/MS
T5 construct: whole, on cells
Procedure: (§1) Proteins were eluted with LDS sample buffer supplemented with DTT by heating at 70° C. for 10 minutes. Eluted fractions from BTN3A1-Fc and control were run into an SDS-gel for 0.5 cm, and the entire gel lanes were excised and digested with trypsin. Liquid chromatography tandem mass spectrometry (LC-MS/MS) analysis of tryptic digests was performed by the Wistar Proteomics and Metabolomics Facility using a Q Exactive HF mass spectrometer (Thermo Scientific). MS/MS spectra generated from the LC-MS/MS runs were searched using full tryptic specificity against the UniProt human database (www.uniprot.org; Oct. 1, 2017) using the MaxQuant 1.6.0.16 program. Protein quantitation was based on intensity and MS/MS count was determined from unique and razor peptides (J. Cox, M. Mann, MaxQuant enables high peptide identification rates, individualized p.p.b.-range mass accuracies and proteome-wide protein quantification. Nat Biotechnol 26, 1367-1372 (2008)). False discovery rates for protein and peptide were set at 1%. Protein tables were filtered to remove reverse database entries, common contaminants, and proteins identified by a single peptide.
(§2) To determine the mechanism by which BTN3A1 (also referred to herein as CD277) inhibits αβ T cell activity, the binding of BTN3A1 to potential immunosuppressive receptors was ruled out by comparing the binding of recombinant NKG2A, GPR174, NRP1, NRP2, PD-1, CTLA4, TIM-3 and BTLA Fc proteins to MHC-I⁻CD32⁺ K562 artificial Antigen-Presenting Cells with BTN3A1 retrovirally expressed on the surface of the cell (BTN-K32 aAPCs) vs. mock-transduced aAPCs. Binding of BTN3A1 to these immunosuppressive receptors was not observed. BTN3A1-Fc proteins were then used to co-immunoprecipitate (co-IP) the binding partner(s) of BTN3A1 on OKT3-activated primary αβ T cells from three independent pull downs from three different donors.

[2] = molecular target: T1, CD5 of OKT3-activated primary αβ T cells; assay: as above
Procedure: as §1, §2

[3] = molecular target: T2, CD2 of OKT3-activated primary αβ T cells; assay: as above
Procedure: as §1, §2

[4] = molecular target: B3; assay: cell-based or functional assay
[5] = molecular target: T6, biotinylated human CD277 Fc fusion (human, UniProt O00481 30-254, limits assumed, biotinylated with EZ-Link Sulfo-NHS biotinylation reagent (sites not given)); assay: yeast display selection (MACS and FACS) for binders of biotinylated human CD277 Fc fusion
T6 construct: also called human CD277 Fc fusion antigen

[6] = molecular target: T3, recombinant NRP1 Fc protein; assay: binding of recombinant Fc proteins to BTN-K32 aAPCs vs. mock-transduced aAPCs
[7] = molecular target: T4, recombinant NRP2 Fc protein; assay: as above
[8] = molecular target: B3; assay: as above

T5 sequence (P16070 21-742): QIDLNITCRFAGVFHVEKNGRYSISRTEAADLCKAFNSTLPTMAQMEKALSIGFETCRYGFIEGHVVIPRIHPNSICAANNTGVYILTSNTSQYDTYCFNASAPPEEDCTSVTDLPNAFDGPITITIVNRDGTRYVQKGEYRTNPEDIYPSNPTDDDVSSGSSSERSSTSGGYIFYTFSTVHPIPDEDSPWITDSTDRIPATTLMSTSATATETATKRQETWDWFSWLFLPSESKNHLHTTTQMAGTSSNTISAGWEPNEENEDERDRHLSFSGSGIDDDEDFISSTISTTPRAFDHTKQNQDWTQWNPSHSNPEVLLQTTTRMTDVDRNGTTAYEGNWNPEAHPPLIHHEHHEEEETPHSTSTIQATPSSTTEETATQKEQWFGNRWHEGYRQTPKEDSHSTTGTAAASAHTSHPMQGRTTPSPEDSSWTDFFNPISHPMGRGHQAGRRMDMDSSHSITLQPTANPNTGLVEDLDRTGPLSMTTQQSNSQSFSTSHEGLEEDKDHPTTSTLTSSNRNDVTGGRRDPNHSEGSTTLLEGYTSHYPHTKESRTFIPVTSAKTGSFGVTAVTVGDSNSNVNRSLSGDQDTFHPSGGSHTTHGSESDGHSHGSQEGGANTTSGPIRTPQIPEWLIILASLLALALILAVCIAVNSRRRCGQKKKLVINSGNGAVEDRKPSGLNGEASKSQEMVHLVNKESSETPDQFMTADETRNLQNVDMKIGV

Binder: B1
- binding result [1]: no binding (tested: 10 µg/ml BTN3A1-Fc)
- binding result [2]: no binding (tested: 10 µg/ml BTN3A1-Fc)
- binding result [3]: no binding (tested: 10 µg/ml BTN3A1-Fc)

Binder: B2
- IFN-γ release of purified CD4+ T cells stimulated with BTN-K32 cells (ELISA, fold over baseline) [4]: > 2 fold
- IFN-γ release of purified CD8+ T cells stimulated with BTN-K32 cells (ELISA, fold) [4]: ~1300 fold
- proliferation of gated CD4+ T cells within total PBMCs stimulated with anti-CD3/anti-CD28 coated BTN-K32 cells (fold change) [4]: ≥ 1.5 fold
- proliferation of gated CD8+ T cells within total PBMCs stimulated with anti-CD3/anti-CD28 coated BTN-K32 cells (fold change) [4]: ≥ 1.5 fold
- proliferation of purified CD4+ T cells stimulated with BTN-K32 cells (fold change) [4]: ≥ 1.5 fold
- proliferation of purified CD8+ T cells stimulated with BTN-K32 cells (fold change) [4]: ≥ 2 fold
- binding result [5]: binds

Binder: B3
- binding result [6]: no binding
- binding result [7]: no binding

Binder: B4
- binding result [8]: no binding
